The stoichiometry N is the number of molecules, sites or subunits per partner or assembly.

For the assay, the target named is TRPA1b-FLAG (mouse TRPA1b, splice variant of TRPA1 lacking exon 20, tagged with FLAG) (mouse). The assay can be described thus: native gel or EMSA.

In the case of “TRPA1b-FLAG (mouse TRPA1b, splice variant of TRPA1 lacking exon 20, tagged with FLAG) (natural protein)”, the stoichiometry N came out at 4.
